This test deals with dansylated-FadAc (Fusobacterium nucleatum 12230) (UniProt Q5I6B0). The experiment in a line: other fluorescence titration.

B1: GST-VE-cadherin_(415–534) (domain or fragment)
chain: KGQFFRVTKKGDIYNEKELDREVYPWYNLTVEAKELDSTGTPTGKESIVQVHIEVLDENDNAPEFAKPYQPKVCENAVHGQLVLQISAIDKDITPRNVKFKFILNTENNFTLTDNHDNTA
The Kd is a measure of binding affinity in units of concentration. A higher Kd goes with weaker binding. Turning to B1, the Kd stood at 15.9 µM.
